Columns and labels:
Format in all cases: cell-based, human
[1] = system: R-loops foci in U2OS cells; assay: Quantification of RHINO R-loops foci after transcription inhibition with triptolide
Text: (A) Illustration of RHINO structure (left) and DNA:RNA hybrid labelling in an R-loop behind a transcribing RNA Pol II complex (right). The positions of the amino acids substituted in the RHINO mutants are indicated by red […]) and blue ([…]) asterisks. (B) Confocal microscopy images of RHINO expressed in U2OS cells together with mCherry-H2B to mark the cell nucleus and a corresponding max. intensity projection. RHINO spots throughout the nucleoplasm (highlighted in inset image) and intense labelled foci in the nucleoli are shown. (C) Comparison of RHINO and S9.6 antibody labelling of DNA:RNA hybrids. The nucleolar signals of S9.6 and RHINO are mutually exclusive (inset). (D) Expression of two RHINO mutant constructs and mCherry-histone-H2B. […] (E) Max. intensity projections of live U2OS cells expressing RHINO alone (left) or co-expressing mScarlet-i tagged human RNase H1 (right) and quantification of RHINO foci for each condition. (F) Quantification of RHINO foci upon use of a rapid inducible RNase H1. […] Quantification of RHINO foci before and 1 h after TA addition. (G) Max. intensity projections of random live U2OS cells expressing RHINO before and after 1 h incubation with Triptolide and quantification of RHINO foci number. (H) Max. intensity projections of the same live U2OS cells expressing RHINO before and after 1 h incubation with Triptolide and quantification of RHINO foci number. […]

[2] = system: nucleolar R-loops in U2OS cells; assay: FRAP on individual nucleolar RHINO foci; settings: in 200 seconds
Text: (A) Labelling of nucleolar R-loops in live U2OS cells. Nucleoli are labelled by a red fluorescent nucleolar marker. Bright RHINO foci in several nucleoli are indicated with arrowheads. (B) Dissecting R-loop localization in nucleolar substructures. U2OS cells expressing RHINO were fixed and stained with an anti-UBF antibody marking the fibrillar centres/dense fibrillar component interface. Display of two super-resolution microscopy image sets acquired with structured illumination (top) and Airyscan 2 technology (bottom). (C) Measurements of nucleolar R-loops dynamics by FRAP on RHINO foci inside nucleoli. The fluorescence within the red circle was bleached (false colour images) and the recovery monitored over time. […] (D) Labelling of Tel-R-loops in live U2OS cells co-expressing RHINO and iRFP-TRF2. […]
Owing to the lack of robust tools to image and collect quantitative parameters of R-loops in live cells, a clear understanding of R-loops dynamics and of their specific kinetics at distinct genomic loci is scarce. […] To investigate the dynamics of nucleolar R-loops, fluorescence recovery was performed after photobleaching (FRAP) experiments in individual nucleolar RHINO foci (FIG. 2C). We observed a rapid turnover of fluorescent RHINO molecules, which restored 90% of the initial fluorescence intensity in 200 seconds (FIG. 2C).

[3] = system: telomeric R-loops in U2OS cells; assay: FRAP at labelled telomeres
Text: (A) Labelling of nucleolar R-loops in live U2OS cells. Nucleoli are labelled by a red fluorescent nucleolar marker. Bright RHINO foci in several nucleoli are indicated with arrowheads. (B) Dissecting R-loop localization in nucleolar substructures. U2OS cells expressing RHINO were fixed and stained with an anti-UBF antibody marking the fibrillar centres/dense fibrillar component interface. Display of two super-resolution microscopy image sets acquired with structured illumination (top) and Airyscan 2 technology (bottom). (C) Measurements of nucleolar R-loops dynamics by FRAP on RHINO foci inside nucleoli. The fluorescence within the red circle was bleached (false colour images) and the recovery monitored over time. […] (D) Labelling of Tel-R-loops in live U2OS cells co-expressing RHINO and iRFP-TRF2. Several telomeres show directly adjacent or overlapping labelling of R-loops (magnified details 1-5). […] (E) Measurements of Tel-R-loops dynamics by FRAP of wild-type RHINO compared to both mutants and diffuse GFP at labelled telomeres. False colour images show the wild-type RHINO labelled cell with the bleach region (red circle). The curves display the mean intensity (+/−SD) of RHINO foci, RHINO mutants and diffuse GFP as control. […]

## CC(C)[C@]12O[C@H]1[C@@H]1O[C@]13[C@]1(O[C@H]1C[C@H]1C4=C(CC[C@@]13C)C(=O)OC4)[C@@H]2O [triptolide]
[1]; one-hour treatment, bulk cell population of U2OS cells
  number of R-loops foci detected by RHINO: significantly decrease
[1]; same RHINO-expressing cells imaged before and one hour after treatment
  reduction in the number of R-loops foci: 46%

B1: RHINO: genetically encoded RNA:DNA hybrid-binding sensor; fusion protein comprising 3 HBDs and a reporter domain (e.g., a fluorescent protein) (protein)
chain: MFYAVRRGRKTGVFLTWNECRAQVDRFPAARFKKFATEDEAWAFVRKSASVDGTAGPGSAVFYAVRRGRKTGVFLTWNECRAQVDRFPAARFKKFATEDEAWAFVRKSASVDGTAGPGSAVFYAVRRGRKTGVFLTWNECRAQVDRFPAARFKKFATEDEAWAFVRKSASVDGTAGPGSTGVTGKLDPPVATMVSKGEEDNMASLPATHELHIFGSINGVDFDMVGQGTGNPNDGYEELNLKSTKGDLQFSPWILVPHIGYGFHQYLPYPDGMSPFQAAMVDGSGYQVHRTMQFEDGASLTVNYRYTYEGSHIKGEAQVKGTGFPADGPVMTNSLTAADWCRSKKTYPNDKTIISTFKWSYTTGNGKRYRSTARTTYTFAKPMAANYLKNQPMYVFRKTELKHSKTELNFKEWQKAFTDVMGMDELYK
[2]
  restored initial fluorescence intensity after photobleaching: 90%
[3]; major fraction of telomeric R-loops, within 10-15 seconds after photobleaching
  fluorescence recovery relative to initial intensity: 88%
[3]; other (minor) population of telomeric R-loops
  fluorescence recovery, second population of telomeric R-loops: little to no recovery

Source: patent US20260234584A1, “R-LOOP SENSOR” (FUNDAÇÃO GIMM - GULBENKIAN INSTITUTE FOR MOLECULAR MEDICINE, priority 2023, published 2026)
